Experimental findings from US20260217814 (published 2026) are described below.

One assay concerns the target T1, cynomolgus IL-17A (cynomolgus).
T1 chain: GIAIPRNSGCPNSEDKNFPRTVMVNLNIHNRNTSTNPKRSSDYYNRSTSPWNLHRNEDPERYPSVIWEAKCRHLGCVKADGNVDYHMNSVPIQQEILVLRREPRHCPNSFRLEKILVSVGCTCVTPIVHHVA
The assay is described as follows: SPR. A general note: In SPR one partner is held on a chip, and binding of the other changes the refractive index at the surface.

In a further assay the target is T2, IL-17D (human).
T2 chain: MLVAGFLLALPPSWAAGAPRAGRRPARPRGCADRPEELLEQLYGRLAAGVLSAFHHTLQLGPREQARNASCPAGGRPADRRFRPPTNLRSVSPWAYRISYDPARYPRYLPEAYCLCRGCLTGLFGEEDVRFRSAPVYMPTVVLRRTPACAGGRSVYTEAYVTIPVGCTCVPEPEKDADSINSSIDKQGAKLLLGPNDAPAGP
In words: competition.

For another assay, the target named is T3, IL-17B (human).
T3 chain: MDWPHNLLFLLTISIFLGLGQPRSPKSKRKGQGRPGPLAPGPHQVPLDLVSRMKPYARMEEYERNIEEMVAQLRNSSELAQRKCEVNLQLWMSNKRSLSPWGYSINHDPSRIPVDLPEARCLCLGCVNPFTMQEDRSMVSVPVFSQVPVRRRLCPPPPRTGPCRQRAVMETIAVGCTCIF
The assay is described as follows: competition ELISA.

For a further assay, the target named is T4, IL-17F (human).
T4 chain: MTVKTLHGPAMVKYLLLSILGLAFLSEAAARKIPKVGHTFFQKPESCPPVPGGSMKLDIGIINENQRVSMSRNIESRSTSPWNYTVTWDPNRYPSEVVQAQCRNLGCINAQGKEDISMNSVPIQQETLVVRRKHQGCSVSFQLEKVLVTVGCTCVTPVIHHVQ
The assay is described as follows: competition ELISA. On the technique in general: In an ELISA, binding on a coated surface is turned into a signal by an enzyme label.

The target in assay [1] is T5, human IL-17A (human).
T5 chain: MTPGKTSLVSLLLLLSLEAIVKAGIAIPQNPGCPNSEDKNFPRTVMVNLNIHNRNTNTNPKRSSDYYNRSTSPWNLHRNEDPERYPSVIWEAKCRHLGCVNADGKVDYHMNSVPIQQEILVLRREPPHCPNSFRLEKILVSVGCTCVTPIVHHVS
In words: SPR, direct setup.

In the next assay the target is T6, IL-17C (human).
T6 chain: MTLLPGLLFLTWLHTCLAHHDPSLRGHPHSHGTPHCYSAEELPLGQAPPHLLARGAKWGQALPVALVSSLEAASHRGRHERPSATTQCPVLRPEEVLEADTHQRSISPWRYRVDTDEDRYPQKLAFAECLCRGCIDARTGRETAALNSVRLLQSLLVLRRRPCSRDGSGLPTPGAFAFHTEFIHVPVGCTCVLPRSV
In words: competition ELISA.

The target of a further assay is T7, IL-17E (human).
T7 chain: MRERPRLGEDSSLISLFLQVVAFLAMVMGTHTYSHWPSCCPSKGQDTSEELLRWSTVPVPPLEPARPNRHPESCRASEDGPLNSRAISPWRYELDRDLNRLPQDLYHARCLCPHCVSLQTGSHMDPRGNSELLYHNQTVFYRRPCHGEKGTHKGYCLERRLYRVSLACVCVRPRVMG
In words: competition ELISA.

For assay [2], the target named is T5, human IL-17A. The assay is described as follows: SPR, capture setup.
For assay [3], the target named is T8, human serum albumin (human, UniProt P02768). The assay is described as follows: SPR, pH 5.5.
The target of assay [4] is T8, human serum albumin. In words: SPR, pH 7.4.
In assay [5] the target is T5, human IL-17A. In words: SPR.

B1: PRO571 (27-31-C04-sc01) (antibody)
chain: DIQMTQSPSSLSASVGDRVTITCQASESIYRYLSWYQQKPGKAPKLLIYLASTLTSGVPSRFSGSGSGTDFTLTISSLQPEDFATYYCQSNFGTASTTYYNTFGGGTKLTVLGGGGGSGGGGSGGGGSGGGGSEVQLVESGGGLVQPGGSLRLSCAASGFSFSGFYYMCWVRQAPGKGLEWIGCIDTGDGTTYYASWAKGRFTISRDNSKNTVYLQMNSLRAEDTAVYYCARDAAYGGYAYPAHGMDLWGQGTLVTVSS
As usually defined, the Kd is a measure of binding affinity in units of concentration. Read a high Kd as weaker binding. Consider B1, for which the Kd was 0.033 nM with cynomolgus IL-17A, 0.04 nM with human IL-17A [1] and 0.12 nM with human IL-17A [2]. In addition, the binding result with IL-17D, with IL-17B, with IL-17F, in the assay with IL-17C and in the assay with IL-17E was “no binding” each time.

B2: A4 HSA arm (antibody)
chain 1: EVQLVESGGGLVQPGGSLRLSCAASGFSFSSDYWMCWVRQAPGKGLEWIGCIYAGDVDDTDYASWARGRFTISRDNSKNTVYLQMNSLRAEDTAVYYCARVDGFDITYFDLWGQGTLVTVSSASTKGPSVFPLAPSSKSTSGGTAALGCLVKDYFPEPVTVSWNSGALTSGVHTFPAVLQSSGLYSLSSVVTVPSSSLGTQTYICNVNHKPSNTKVDKKVEPKSCGGGGSGGGGSDIQMTQSPSSLSASVGDRVTITCQSSESVYSNNQLSWYQQKPGQPPKLLIYDASDLASGVPSRFSGSGSGTDFTLTISSLQPEDFATYYCAGGFSSSSDTAFGGGTKLTVLGGGGGSGGGGSGGGGSGGGGSEVQLVESGGGLVQPGGSLRLSCAASGFSLSSNAMGWVRQAPGKGLEYIGIISVGGFTYYASWAKGRFTISRDNSKNTVYLQMNSLRAEDTATYFCARDRHGGDSSGAFYLWGQGTLVTVSS
chain 2: DIQMTQSPSSLSASVGDRVTITCQASQTINYWLAWYQQKPGKAPKLLIYRASTLASGVPSRFSGSGSGTDFTLTISSLQPEDFATYYCQNYYYSTSRSYGFGGGTKLTVLGRTRTVAAPSVFIFPPSDEQLKSGTASVVCLLNNFYPREAKVQWKVDNALQSGNSQESVTEQDSKDSTYSLSSTLTLSKADYEKHKVYACEVTHQGLSSPVTKSFNRGECGGGGSGGGGSDIQMTQSPSSLSASVGDRVTINCQASESISSWLAWYQQKPGKRPKLLIYKASTLASGVPSRFSGSGSGTDYTLTISSLQPEDFATYYCQGYYLDSSVDDNVFGGGTKLTVLGGGGGSGGGGSGGGGSGGGGSEVQLVESGGGLVQPGGSLRLSCAASGIDFSTYGISWVRQAPGKGLEWIAYIYPDYGITDYASWVNGRFTISLDNAQNTVYLQMNSLRAEDTAVYYCARSGSYYSRGWGAHYFNLWGQGTLVTVSS
With B2, the Kd with human serum albumin [3] came to 1.67 nM; in the assay with human serum albumin [4], 4.79 nM.

B3: A3 HSA arm (antibody)
chain 1: EVQLVESGGGLVQPGGSLRLSCAASGFSLSSNAMGWVRQAPGKGLEYIGIISVGGFTYYASWAKGRFTISRDNSKNTVYLQMNSLRAEDTATYFCARDRHGGDSSGAFYLWGQGTLVTVSSASTKGPSVFPLAPSSKSTSGGTAALGCLVKDYFPEPVTVSWNSGALTSGVHTFPAVLQSSGLYSLSSVVTVPSSSLGTQTYICNVNHKPSNTKVDKKVEPKSCGGGGSGGGGSDIQMTQSPSSLSASVGDRVTITCQASQTINYWLAWYQQKPGKAPKLLIYRASTLASGVPSRFSGSGSGTDFTLTISSLQPEDFATYYCQNYYYSTSRSYGFGGGTKLTVLGGGGGSGGGGSGGGGSGGGGSEVQLVESGGGLVQPGGSLRLSCAASGFSFSSDYWMCWVRQAPGKGLEWIGCIYAGDVDDTDYASWARGRFTISRDNSKNTVYLQMNSLRAEDTAVYYCARVDGFDITYFDLWGQGTLVTVSS
chain 2: DIQMTQSPSSLSASVGDRVTITCQSSESVYSNNQLSWYQQKPGQPPKLLIYDASDLASGVPSRFSGSGSGTDFTLTISSLQPEDFATYYCAGGFSSSSDTAFGGGTKLTVLGRTRTVAAPSVFIFPPSDEQLKSGTASVVCLLNNFYPREAKVQWKVDNALQSGNSQESVTEQDSKDSTYSLSSTLTLSKADYEKHKVYACEVTHQGLSSPVTKSFNRGECGGGGSGGGGSDIQMTQSPSSLSASVGDRVTINCQASESISSWLAWYQQKPGKRPKLLIYKASTLASGVPSRFSGSGSGTDYTLTISSLQPEDFATYYCQGYYLDSSVDDNVFGGGTKLTVLGGGGGSGGGGSGGGGSGGGGSEVQLVESGGGLVQPGGSLRLSCAASGIDFSTYGISWVRQAPGKGLEWIAYIYPDYGITDYASWVNGRFTISLDNAQNTVYLQMNSLRAEDTAVYYCARSGSYYSRGWGAHYFNLWGQGTLVTVSS
Take B3: the results for the Kd in the assay with human serum albumin [3] and in the assay with human serum albumin [4] were 0.947 nM and 1.37 nM, respectively.

B4: A3 IL-17A arm (antibody)
chain 1: EVQLVESGGGLVQPGGSLRLSCAASGFSLSSNAMGWVRQAPGKGLEYIGIISVGGFTYYASWAKGRFTISRDNSKNTVYLQMNSLRAEDTATYFCARDRHGGDSSGAFYLWGQGTLVTVSSASTKGPSVFPLAPSSKSTSGGTAALGCLVKDYFPEPVTVSWNSGALTSGVHTFPAVLQSSGLYSLSSVVTVPSSSLGTQTYICNVNHKPSNTKVDKKVEPKSCGGGGSGGGGSDIQMTQSPSSLSASVGDRVTITCQASQTINYWLAWYQQKPGKAPKLLIYRASTLASGVPSRFSGSGSGTDFTLTISSLQPEDFATYYCQNYYYSTSRSYGFGGGTKLTVLGGGGGSGGGGSGGGGSGGGGSEVQLVESGGGLVQPGGSLRLSCAASGFSFSSDYWMCWVRQAPGKGLEWIGCIYAGDVDDTDYASWARGRFTISRDNSKNTVYLQMNSLRAEDTAVYYCARVDGFDITYFDLWGQGTLVTVSS
chain 2: DIQMTQSPSSLSASVGDRVTITCQSSESVYSNNQLSWYQQKPGQPPKLLIYDASDLASGVPSRFSGSGSGTDFTLTISSLQPEDFATYYCAGGFSSSSDTAFGGGTKLTVLGRTRTVAAPSVFIFPPSDEQLKSGTASVVCLLNNFYPREAKVQWKVDNALQSGNSQESVTEQDSKDSTYSLSSTLTLSKADYEKHKVYACEVTHQGLSSPVTKSFNRGECGGGGSGGGGSDIQMTQSPSSLSASVGDRVTINCQASESISSWLAWYQQKPGKRPKLLIYKASTLASGVPSRFSGSGSGTDYTLTISSLQPEDFATYYCQGYYLDSSVDDNVFGGGTKLTVLGGGGGSGGGGSGGGGSGGGGSEVQLVESGGGLVQPGGSLRLSCAASGIDFSTYGISWVRQAPGKGLEWIAYIYPDYGITDYASWVNGRFTISLDNAQNTVYLQMNSLRAEDTAVYYCARSGSYYSRGWGAHYFNLWGQGTLVTVSS
In the assay with human IL-17A [5], B4 showed a Kd of 1.53 nM.

B5: A1 (27-07-G02-sc01) (antibody)
chain: DIQMTQSPSSLSASVGDRVTITCQASQTINYWLAWYQQKPGKAPKLLIYRASTLASGVPSRFSGSGSGTDFTLTISSLQPEDFATYYCQNYYYSTSRSYGFGGGTKLTVLGGGGGSGGGGSGGGGSGGGGSEVQLVESGGGLVQPGGSLRLSCAASGFSFSSDYWMCWVRQAPGKGLEWIGCIYAGDVDDTDYASWARGRFTISRDNSKNTVYLQMNSLRAEDTAVYYCARVDGFDITYFDLWGQGTLVTVSS
Take B5: the Kd in the assay with cynomolgus IL-17A was determined as 0.9 nM; with human IL-17A [1], 0.14 nM. The binding result in the assay with IL-17D, in the assay with IL-17B, with IL-17F, with IL-17C and in the assay with IL-17E was “no binding” throughout.
